Paper PMC12155429, “PTPA Governs Stress-Responsive Differentiation and Metabolic Homeostasis in Toxoplasma gondii” (Cells, 2025)

Target: T1, pMAL–PP2AA–His (Toxoplasma gondii PP2A A subunit) (Toxoplasma gondii, UniProt S8EX93 1-766)
T1 construct: PP2A A subunit of Toxoplasma gondii (TGME49_315670), amplified from Toxoplasma cDNA; printed length 766 aa, ~130 kDa with the pMAL tag; also called PP2A scaffold (A) subunit; source: E. coli, purified (MBPSep Dextrin Agarose Resin, eluted with 10 mM maltose); not shown: MBP (from the vector pMAL)
T1 sequence (looked up): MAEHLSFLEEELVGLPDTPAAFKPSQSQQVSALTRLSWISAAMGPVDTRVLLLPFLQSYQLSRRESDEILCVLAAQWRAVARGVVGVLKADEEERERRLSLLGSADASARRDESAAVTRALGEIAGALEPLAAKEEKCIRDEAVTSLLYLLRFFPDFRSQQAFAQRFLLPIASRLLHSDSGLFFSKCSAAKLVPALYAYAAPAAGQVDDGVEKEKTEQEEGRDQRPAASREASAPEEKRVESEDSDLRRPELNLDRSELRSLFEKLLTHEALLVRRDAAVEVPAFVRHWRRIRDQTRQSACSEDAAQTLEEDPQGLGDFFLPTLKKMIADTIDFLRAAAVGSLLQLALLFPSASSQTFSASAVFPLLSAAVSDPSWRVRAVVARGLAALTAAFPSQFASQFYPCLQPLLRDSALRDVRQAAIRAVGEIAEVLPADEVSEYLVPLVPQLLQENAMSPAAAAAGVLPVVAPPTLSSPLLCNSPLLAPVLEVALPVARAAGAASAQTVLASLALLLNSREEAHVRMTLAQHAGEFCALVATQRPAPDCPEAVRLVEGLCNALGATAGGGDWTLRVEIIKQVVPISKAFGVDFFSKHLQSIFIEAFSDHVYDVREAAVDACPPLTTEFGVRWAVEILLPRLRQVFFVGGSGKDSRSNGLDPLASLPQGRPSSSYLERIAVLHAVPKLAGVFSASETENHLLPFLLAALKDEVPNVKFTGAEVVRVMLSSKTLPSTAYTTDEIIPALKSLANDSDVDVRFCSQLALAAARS
Test: pull-down; anti-His or anti-HA magnetic beads washed with TBS, incubated with the tagged protein 5 h at 4 °C, then with the target protein 5 h; washed, eluted, Western blot
Conditions: both partners purified

B1: pMAL–PP2AC–HA (Toxoplasma gondii PP2A C subunit) (enzyme, UniProt A0A125YNB3 1-347, looked up)
chain: MSGATPGAVAALQPASAAPALFTIPADVAPSDLPDHYLGQEELRGIDKQMEKLFKCEKLDEEEVRSLCAVLKDILVQEANVQPVRTPVTVVGDIHGQFHDLLEIFKCAGTCPSVNFLFLGDYVDRGLNSVESVSLVFLLKVRYRHRVTLIRGNHESRQITQVYGFYDECLRKYGNANVWNYFTDVFDYLPLSALIEDQIFCPHAGLSPTIETLDHVRLLERFQEVPHEGPMCDLLWSDPEEQMPGWGMSPRGAGYTFGQDISEKFNHVNGLKLIARAHQLIMEGFQWSQANNVVTIFSAPNYCYRCGNQAAIMKIDEHMNYTFIQFNPSLLQASGADMQKRIPDYFL
notes: PP2A C subunit of Toxoplasma gondii (TGME49_224220), amplified from Toxoplasma cDNA; printed length 347 aa, ~80 kDa with the pMAL tag; also called PP2A catalytic (C) subunit; source: E. coli, purified (MBPSep Dextrin Agarose Resin, eluted with 10 mM maltose); not shown: MBP (from the vector pMAL)
binding result: binds
